Measurements: patent US20050118729A1 (published 2005)

Target: T1, α4β1 integrin expressed on Jurkat cells (human, UniProt P13612 34-1032; P05556 21-798)
T1 construct: whole, on cells; Cells labeled with a fluorescent dye (Cyto 82); also called receptor recognizing the CS1 peptide
Assay: cell adhesion of labeled Jurkat cells on microarray
Experimental: Jurkat T-cells, a human leukemia line, were grown under the appropriate growing conditions. Shortly before the adherence assay, cells were washed with 5 mM EDTA in Tris-buffered saline (TBS, 10 mM Tris-HCl, pH 7.4, 150 mM NaCl) and then incubated with Cyto 82 (2 μM final concentration) for 30 min under continuous agitation. Labeled cells were washed twice with the same buffer and applied directly on the fabricated microarray slides.
The model of interaction chosen for this purpose was α4β1-CS1-interaction model. α4β1 is an integrin expressed by several types of adherent cells and can mediate cell matrix contact trough the known ligand fibronectin. […] The slides were washed extensively and the interaction was scanned by the microarray scanner (FIG. 10).

T1 sequence (P13612 34-1032, chain 1 of 2): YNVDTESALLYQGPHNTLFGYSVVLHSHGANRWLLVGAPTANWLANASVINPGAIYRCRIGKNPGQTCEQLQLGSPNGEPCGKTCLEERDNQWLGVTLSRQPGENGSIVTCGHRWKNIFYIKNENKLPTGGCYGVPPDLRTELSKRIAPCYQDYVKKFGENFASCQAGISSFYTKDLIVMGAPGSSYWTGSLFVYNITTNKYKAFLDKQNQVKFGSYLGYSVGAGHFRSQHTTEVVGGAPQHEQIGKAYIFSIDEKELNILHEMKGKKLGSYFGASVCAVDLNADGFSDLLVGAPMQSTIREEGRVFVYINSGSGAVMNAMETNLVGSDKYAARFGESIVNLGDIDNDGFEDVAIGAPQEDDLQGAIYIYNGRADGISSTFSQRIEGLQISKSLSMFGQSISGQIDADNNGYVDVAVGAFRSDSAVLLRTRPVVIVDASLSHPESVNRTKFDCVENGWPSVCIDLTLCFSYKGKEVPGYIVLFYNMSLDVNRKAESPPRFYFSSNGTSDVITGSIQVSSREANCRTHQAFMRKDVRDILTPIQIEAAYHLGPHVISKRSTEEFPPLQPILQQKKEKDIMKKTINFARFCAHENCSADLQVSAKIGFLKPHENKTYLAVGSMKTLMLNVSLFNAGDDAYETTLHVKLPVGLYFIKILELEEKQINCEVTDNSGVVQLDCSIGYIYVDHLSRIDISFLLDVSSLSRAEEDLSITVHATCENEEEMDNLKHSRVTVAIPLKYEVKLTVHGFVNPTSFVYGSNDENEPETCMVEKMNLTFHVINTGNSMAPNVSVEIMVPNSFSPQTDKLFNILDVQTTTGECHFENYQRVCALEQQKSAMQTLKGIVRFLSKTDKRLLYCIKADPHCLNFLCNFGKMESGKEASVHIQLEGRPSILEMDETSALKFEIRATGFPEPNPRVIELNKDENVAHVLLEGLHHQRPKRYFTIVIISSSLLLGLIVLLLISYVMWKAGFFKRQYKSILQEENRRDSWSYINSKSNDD
T1 sequence (P05556 21-798, chain 2 of 2): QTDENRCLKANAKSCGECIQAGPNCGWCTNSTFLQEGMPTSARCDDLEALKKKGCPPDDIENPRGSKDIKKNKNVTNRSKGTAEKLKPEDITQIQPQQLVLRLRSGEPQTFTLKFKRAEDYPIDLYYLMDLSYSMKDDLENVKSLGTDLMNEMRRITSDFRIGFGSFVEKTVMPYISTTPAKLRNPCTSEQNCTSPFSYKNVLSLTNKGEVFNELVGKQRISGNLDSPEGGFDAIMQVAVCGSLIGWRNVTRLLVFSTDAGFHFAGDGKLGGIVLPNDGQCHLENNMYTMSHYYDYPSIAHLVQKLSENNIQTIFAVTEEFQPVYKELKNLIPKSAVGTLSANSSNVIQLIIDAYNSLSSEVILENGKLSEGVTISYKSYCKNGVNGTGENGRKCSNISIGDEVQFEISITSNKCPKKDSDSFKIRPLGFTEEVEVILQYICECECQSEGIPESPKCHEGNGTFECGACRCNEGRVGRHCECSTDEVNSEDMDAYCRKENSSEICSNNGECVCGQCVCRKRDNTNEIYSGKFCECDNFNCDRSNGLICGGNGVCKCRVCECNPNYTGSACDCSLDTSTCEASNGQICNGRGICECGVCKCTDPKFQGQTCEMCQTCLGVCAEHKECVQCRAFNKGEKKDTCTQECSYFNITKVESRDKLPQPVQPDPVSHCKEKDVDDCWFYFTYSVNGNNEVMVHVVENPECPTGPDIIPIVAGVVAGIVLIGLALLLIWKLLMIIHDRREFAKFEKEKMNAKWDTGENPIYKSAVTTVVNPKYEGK

B1: recombinant protein comprising the cellulose binding region of SEQ ID NO 4 (cellulose binding recombinant protein of Example 1) (other)
chain: NATPTKGATPTNTATPTKSATATPTRPSVPTNTPTNTPANTPVSGNLKVEFYNSNPSDTTNSINPQFKVTNTGSSAIDLSKLTLRYYYTVDGQKDQTFWCDHAAIIGSNGSYNGITSNVKGTFVKMSSSTNNADTYLEISFTGGTLEPGAHVQIQGRFAKNDWSNYTQSNDYSFKSASQFVEWDQVTAYLNGVLVWGKEPGGSVVPSTQPVTTPPATTKPPATTKPPATTIPPSDDPNA
B1: no binding (tested: highest array concentration).
